Reference: patent US12419937B2, “High concentration alpha-glucosidase compositions for the treatment of Pompe disease” (Amicus Therapeutics, Inc., priority 2012, dated 2025)

Experiments:
[1] = Solubility of Lumizyme® in the presence of 1-DNJ-HCl and excipients (Example 12); assay type: physicochemical; conditions: for Protein solubility: phosphate buffer
Experimental: A vial of Lumizyme® containing 52.5 mg protein, 210 mg mannitol, 0.5 mg polysorbate 80, 9.9 mg Na2HPO4×7H2O, and 31.2 mg NaH2PO4×H2O was dissolved in a minimal volume of water (1 mL added) yielding 1.2 mL of protein solution. Five 240-μL aliquots (each containing 10.5 mg protein) were transferred to Amicon Ultra 0.5 mL 30 kDa cutoff centrifugal filter devices and centrifuged for 10 min at 14,000×g in an Eppendorf centrifuge to obtain about 50 μL of retentate.
The original excipients present in the composition, i.e., mannitol and polysorbate 80 were exchanged for new excipients to test protein solubility (keeping the same buffer conditions). The following excipient solutions were prepared for the exchange using the original phosphate buffer:
For exchanging excipients, 5.2 mg Na2HPO4 and 27.1 mg NaH2PO4 were dissolved in 10.3 mL water to prepare the washing/excipient exchange phosphate buffer of approximately 26 mM. A volume of 8 mL of the buffer for excipient exchange was supplemented with 160 mg/mL of the small molecule ligand (to prepare excipient 1, 3, 4 and 5 solutions), while 2 mL was supplemented with 32 mg/mL ligand for excipient 2 (100 mM Arginine). Each of the excipients were dissolved in 2 mL of this buffer at the concentrations listed above.
An excipient solution was added to each separate filter device to achieve a total volume of 0.5 mL. Each filter device was centrifuged for 15 min at 14,000×g in a bench top Eppendorf centrifuge to retain approximately 25 μL. The units were re-filled with the same excipient solution to 0.5 mL and centrifuged again (this process was repeated 2 times). This procedure efficiently replaced mannitol and polysorbate 80 with excipients described above, diluting the original constituents by about 1:1000. All filtrates for each excipient were collected and examined for any protein leaks through the filter.
Each centrifugal filter device was inverted in a clean tube, and the concentrated protein solution was collected from each filter device by centrifugation for 2 min at 1000×g. The volume of each sample was determined (66 μL, corresponding to a target protein concentration of 160 mg/mL), and it was confirmed that no visible precipitate was observable in each sample. Samples were transferred back to their respective filter devices and centrifuged for an additional 5 min. Samples were then collected by inversion of the filters into clean tubes and centrifuging for 2 min at 1000×g to yield about 37 μL of retentate (corresponding to >280 mg/mL protein based on a total initial concentration of 10.5 mg protein).
The samples were vortexed and incubated for 1 hr at room temperature to equilibrate liquid and solid phases followed by centrifugation for 10 min at 14,000×g. Again, no visible precipitate was observed. Two-three 10 μL aliquots were taken from the supernatant of each sample (depending on available volume of the liquid phase), and diluted 1:1000 in two steps. Protein concentration was measured by UV absorbance at 280 nm, and the maximum protein solubility was calculated according to a highly reproducible calibration curve. The calibration curve was prepared by dissolving 6.8 mg of Myozyme® (alglucosidase alpha) lyophilized powder (containing 1.16 mg protein) in 1.16 mL of water followed by a serial dilution in deionized water. Absorbance was measured at 280 nm in a 1 cm light-pass quartz semi-micro cuvette using 0.5 mL aliquots.

GAA KO mice = assay: Repeat subcutaneous dosing of rhGAA or rhGAA + 1-DNJ co-formulation in GAA KO mice (Example 13); assay type: in vivo, mouse
Experimental: 12-week old male GAA KO mice in groups of 7 were used in the present study. Each group of mice was administered one of the following treatments:
(2) Lumizyme® alone (20 mg/kg) delivered subcutaneously (SQ); or
(3) Co-formulated Lumizyme® (20 mg/kg) and 1-DNJ (30 mg/kg) SQ.
Each of the treatments were administered to their respective treatment group for a period of 2 weeks. The treatments were administered on Monday and Thursday of each week. SQ injections were administered between the shoulder blades of each mouse receiving treatment. A total of 4 doses was administered to each study animal. Diphenhydramine was administered intraperitoneally (IP) before the 3rd and 4th doses.
rhGAA and glycogen levels were determined according to the following sampling protocol. Blood was taken from each study animal after the 4th dose for plasma pharmacokinetic analysis. GAA activity, Western blots, and 1-DNJ levels were determined for plasma samples taken 2 and 4 hours after the last SQ dose.
Tissue samples were collected to determine rhGAA uptake 3 days following the last dose of the study (i.e., 3 days post dose 4). Tissue samples included heart, diaphragm, tongue, brain, spleen, liver, biceps, triceps, quadriceps, soleus, gastrocnemius, ventral skin and dorsal skin from the SQ injection site. Tissue samples were also collected to determine glycogen concentration 14 days following the last dose of the study (i.e., 14 days post dose 4).

[2] = rat, iv
rhGAA (e.g., Myozyme®) = biological target: T1, rhGAA (e.g., Myozyme®) (Homo sapiens, UniProt P10253); assay: rhGAA enzyme inactivation in citrate anti-coagulated whole blood at 37° C. (Examples 7, 8); assay type: in vitro ADME; conditions: for enzyme inactivated in whole blood: no 1-DNJ-HCl
T1 construct: purchased Genzyme Corp; host or cells: Chinese hamster ovary cell line
Experimental: Aliquots were collected at 0, 2, 4, 8 and 24 hrs and centrifuged to obtain plasma. These plasma samples were then diluted in potassium acetate buffer (pH 4.0) and assayed for GAA activity using the 4-methylumbeliferyl-α-glucose (4-MUG) fluorogenic substrate. The measured GAA activity for individual samples at each time point was normalized to the 0 hr and expressed as % of initial activity. Data from 4 independent experiments were analyzed to obtain the mean (and standard deviation) and plotted versus time to assess the loss of enzyme activity over this time course.
Aliquots were collected at 0, 3 and 6 hrs and centrifuged to obtain plasma. These plasma samples were then diluted in potassium acetate buffer (pH 4.0) and assayed for GAA activity using the 4-methylumbeliferyl-α-glucose (4-MUG) fluorogenic substrate. The measured GAA activity for individual samples at each time point was normalized to the 0 hr and expressed as % of initial activity.
Moreover, since Myozyme® has a long plasma half-life (reported to be more than 3 hrs), there is a high probability that an appreciable amount of the enzyme remains in the circulation many hours after the infusion that would also be prone to inactivation.
Based on human plasma PK data, these concentrations are readily obtainable in the clinic.

[3] = 4 doses Lumizyme 20 mg/kg +/− 1-DNJ 30 mg/kg SQ at 3-4 day intervals, 3 days after the last dose

alglucosidase alfa [Lumizyme®]
Protein solubility ([1]; Arginine 100 mM, 1-DNJ-HCl 32 mg/mL): 201 mg/mL | Protein solubility ([1]; Arginine + Glutamic acid 50 mM + 50 mM, 1-DNJ-HCl 160 mg/mL): 242 mg/mL | Protein solubility ([1]; Gamma-cyclodextrin 10% (w/v), 1-DNJ-HCl 160 mg/mL): 114 mg/mL | Protein solubility ([1]; PEG400 5% (w/v), 1-DNJ-HCl 160 mg/mL): 158 mg/mL | Protein solubility ([1]; Proline 250 mM, 1-DNJ-HCl 160 mg/mL): 195 mg/mL | solubility of the protein ([1]; without the added excipients): about 80 mg/mL | rhGAA activity uptake, Biceps (GAA KO mice; [3]): 56.0 nmol/mg/h | rhGAA activity uptake, Diaphragm (GAA KO mice; [3]): 4.2 nmol/mg/h | rhGAA activity uptake, Gastrocnemius (GAA KO mice; [3]): 2.0 nmol/mg/h | rhGAA activity uptake, Heart (GAA KO mice; [3]): 1.9 nmol/mg/h | rhGAA activity uptake, Quadriceps (GAA KO mice; [3]): 2.1 nmol/mg/h | rhGAA activity uptake, Skin (GAA KO mice; [3]): 75 nmol/mg/h | rhGAA activity uptake, Soleus (GAA KO mice; [3]): 2.7 nmol/mg/h | rhGAA activity uptake, Tongue (GAA KO mice; [3]): 2.7 nmol/mg/h | rhGAA activity uptake, Triceps (GAA KO mice; [3]): 88.0 nmol/mg/h

rhGAA: recombinant human acid α-glucosidase; Myozyme® in Examples 7-8, Lumizyme® in Example 13, product not named in Examples 5-6
plasma rhGAA levels (GAA KO mice; 4 hours after the final SQ dose): increased compared to the levels in the 2 hour samples | in vivo half life of rhGAA [2]: 1.4 ± 0.2 h | enzyme inactivated in whole blood (rhGAA (e.g., Myozyme®); by 4 hrs): approximately 40% | enzyme inactivated in whole blood (rhGAA (e.g., Myozyme®); by 8 hrs): ~70% | enzyme inactivated in whole blood (rhGAA (e.g., Myozyme®); by 24 hrs): ~100% | enzyme activity in whole blood (rhGAA (e.g., Myozyme®); incubated with 50 μM 1-DNJ-HCl, up to 24 hrs): remained completely active
